Results on 1 molecule are retold here after PMC6321638.

The assay has as its target L52A or F85A. Briefly: pull-down; GST-pulldown: purified His-SOUL (5 µM) and GST-ALG-2 (5 µM) with Glutathione Sepharose 4B in buffer B (100 mM Tris-HCl pH 7.5, 100 mM NaCl, 10% glycerol) with 20 µM CaCl2 (or various amounts of Ca2+), 30 min at 4 °C; SDS-PAGE, Coomassie.

B1: His-SOUL^WT (wild-type SOUL fused to His-tag) (natural protein)
chain: MAEEPEPDLGVAEGSEDQALEMPSWKAPEDIDPQPGSYEIRHYGPAKWVSTCVESLDWDSAIQTGFTKLNGYIQGKNEKEMKIKLTAPVTSYVEPGSSPFSESTITISLYIPSEQQPDPPRPSESDVFIEDRAEMTVFVRSFDGFSSGQKNQEQLLTLANILREEGKVFNEKVFYTAGYSSPFQLLDRNNEVWLIQKNEPSVENK
In turn, B1 came in with a binding relative to ALG-2^WT (percent) of 80 to 90%.
